These results are taken from PMC10843261 (Molecular cell, 2023).

This assay has as its target SARS-CoV-2 nsp12 (SARS-CoV-2, UniProt P0DTD1). Nature of the assay: cryo-EM structure.

B1: SARS-CoV-2 nsp9 (natural protein)
chain: NNELSPVALRQMSCAAGTTQTACTDDNALAYYNTTKGGRFVLALLSDLQDLKWARFPKSDGTGTIYTELEPPCRFVTDTPKGPKVKYLYFIKGLNNLNRGMVLGSLAATVRLQ
On to B1, for which the binding result is “binds”.

B2: RNAylated-nsp9 (20mer RNA) (natural protein)
chain: B1 chain
For B2, the binding result is “binds”.
